Data published in PMC6650547 (mBio, 2019).

Biological target: SUDV VP35:[change] peptide (residues 1 to 34) (Sudan virus (SUDV), strain Gulu, UniProt Q5XX07 1-34)
Test: BLI
Conditions: both partners purified

B1: His-SUDV-NP(34-367) (domain or fragment)
chain: GIVRQRVIPVYVVNDLEGICQHIIQAFEAGVDFQDNADSFLLLLCLHHAYQGDHRLFLKSDAVQYLEGHGFRFEVREKENVHRLDELLPNVTGGKNLRRTLAAMPEEETTEANAGQFLSFASLFLPKLVVGEKACLEKVQRQIQVHAEQGLIQYPTSWQSVGHMMVIFRLMRTNFLIKFLLIHQGMHMVAGHDANDTVISNSVAQARFSGLLIVKTVLDHILQKTDLGVRLHPLARTAKVKNEVSSFKAALGSLAKHGEYAPFARLLNLSGVNNLEHGLYPQLSAIALGVATAHGSTLAGVNVGEQYQQLREAATEAEKQLQQYAETRELDNLG
- Kd: ~266 nM
